Legend:
[1] = tested on: mouse pancreatic cancer Panc-2 cells; assay: Panc-2 syngeneic mouse model of pancreatic cancer; format: in vivo
Procedure: Methodology used (Syngeneic Mouse Models of lung, colon and pancreatic cancer): To investigate the anti-tumor effects of HDM2-specific antibodies on lung, colon and pancreatic tumors in vivo, three well-known syngeneic mouse models of lung, colon and pancreatic cancer were used (Sharma et al., 1999, J. Immunol. 163 (9):5020-5028; McIntyre, 2015, Bioassays 37(8):909-920; Li, et al., 2015, Sci. Rep. 5:7856). Subcutaneous tumors were prepared by implanting either mouse Lewis Lung cancer LL/2 cells (2.5×10^5 cells/mouse), mouse colon cancer MC-38 cells (5×10^5 cells/mouse) or mouse pancreatic cancer Panc-2 cells (2×10^6 cells/mouse) in the right flanks of 8-week-old female C57BL/6 mice (n=6-7). The mice were returned to their respective cages after tumor implantation. From day 7 after tumor implantation, the tumor volumes were measured 2 times/week with a digital caliper. In the case of MC-38 and Panc-2 study, treatment started when the tumors reached an average of 70-80 mm^3. In the case of LL/2 study, tumor cell inoculation and treatment were initiated simultaneously. Mice were micro-chipped and registered following tumor implantation. Tumor volume measurements and body weights were recorded and mice were randomized into groups that received: A) mAb NMC-103 at 0.4 mg/kg (3 times a week for 3 weeks), 2 mg/kg (2 times a week for 3 weeks), or 4 mg/kg (2 times a week for 3 weeks); B) NMC-204 at 0.4 mg/kg (3 times a week for 3 weeks); C) isotype control mouse IgG1 (Abcam, Cat. No. ab18447) or IgG3 (Abcam, Cat. No. ab18392) at 0.4 mg/kg (3 times a week for 3 weeks) or 4 mg/kg (2 times a week for 3 weeks); D) Gemcitabine (25 mg/kg) and nab-paclitaxel (5 mg/kg) 2 times a week for 3 weeks; or E) a combination of gemcitabine (25 mg/kg), nab-paclitaxel (5 mg/kg) and mAb NMC-103 (2 mg/kg; 2 times a week for 3 weeks) or (10 mg/kg; 2 times a week for 2 weeks). All tumors were injected subcutaneously and all treatments were performed by intraperitoneal injection. Any mouse displaying prolonged adverse clinical signs, or with body weight loss exceeding 15% relative to body weight at day 0, was euthanized. Tumor measurements from post-treatment with HDM2-specific antibodies versus isotype control mouse antibodies versus standard of care treatment (gemcitabine and nab-paclitaxel) were made, and results are presented in FIGS. 16-19.
The anti-tumor efficacy of NMC-103 and of its combination with pancreatic cancer standard of care treatment Gemcitabine (G) and nab-Paclitaxel (nP) was further evaluated in vivo utilizing the Panc-2 syngeneic mouse model of pancreatic cancer discussed above. In this Panc-2 study, treatment started after Panc-2 cell inoculation and when the tumors reached 80-100 mm^3, with mAb NMC-103 administered at 10 mg/kg, two times a week in a larger number of mice (n=8/group) than that used for the study of FIG. 19.
Evaluation of anti-tumor effects of antibody OP145 on pancreatic tumor growth in vivo: Subcutaneous tumors were prepared by implanting Panc02 cells (2×10^6 per mouse) in the right flanks of female 8-week-old C57BL/6 mice. The mice were returned to their respective cages after tumor implantation. From day 7 after tumor implantation, the tumor volumes were measured 2 times/week with a digital caliper. Treatment started when the tumors reached an average of 200 mm^3 (see FIG. 26, day 14). Mice were micro-chipped and registered following tumor implantation. Tumor volume measurements and body weights were recorded and mice were randomized into two groups that received either OP145 antibody (by intra-tumoral injection of 0.1 mg/kg of mouse monoclonal antibody OP145, 3 times per week) or PBS. Three mice were treated with OP145, and five mice were treated with PBS. Any mouse displaying prolonged adverse clinical signs, or with body weight loss exceeding 15% from Day 0 body weight, was euthanized. Tumor measurements from the first 10 days post treatment with OP145 antibody versus PBS were made, and results are represented in FIG. 26. […]

[2] = tested on: human pancreatic cancer MIAPaCa-2 cells; assay: Complement-dependent cytotoxicity with normal human serum (PI staining); format: cell-based; conditions: antibody 30 μg/ml, NHS 1:10, 2 hours
Procedure: Methodology used: Cells seeded in 24-well dishes were grown overnight at 37° C. in a humidified atmosphere supplied with 5% CO2-95% air mixture. The following day the cells were thoroughly washed with ice-cold PBS and incubated with HDM2-specific mAb NMC-103 diluted in culture medium containing 1% BSA to a final antibody concentration of 30 μg/ml. After 30 min, NHS was added to the cells at a final concentration of 1:10 in the culture medium with 1% BSA together with 1% propidium iodide (PI) solution. Cells were then incubated with NHS for 2 hours and images were taken using EVOS FL fluorescent microscope (Life Technologies).
Methodology used: Cells seeded in 24-well dishes were grown over night at 37° C. in a humidified atmosphere supplied with 5% CO2-95% air mixture. The following day the cells were thoroughly washed with ice-cold PBS and incubated with various HDM2-specific antibodies (i.e., OP145, N-20 and C-18 antibodies; see description of the antibodies in Table 10) or control antibodies (directed to the intra-cellular protein Cytochrome C) diluted in culture medium containing 1% BSA to a final antibody concentration of 5-10 ug/ml. After 30 min, NHS was added to the cells to make a final concentration of at 1:30 in the culture medium with 1% BSA together with 1% propidium iodide (PI) solution. […]

[3] = tested on: mouse Lewis Lung cancer LL/2 cells; assay: LL/2 syngeneic mouse model of lung cancer; format: in vivo; conditions: LL/2 s.c. in C57BL/6 mice; 0.4 mg/kg i.p. 3 times a week for 3 weeks, started with tumor cell inoculation; by day 21
Procedure: Methodology used (Syngeneic Mouse Models of lung, colon and pancreatic cancer): To investigate the anti-tumor effects of HDM2-specific antibodies on lung, colon and pancreatic tumors in vivo, three well-known syngeneic mouse models of lung, colon and pancreatic cancer were used (Sharma et al., 1999, J. Immunol. 163 (9):5020-5028; McIntyre, 2015, Bioassays 37(8):909-920; Li, et al., 2015, Sci. Rep. 5:7856). Subcutaneous tumors were prepared by implanting either mouse Lewis Lung cancer LL/2 cells (2.5×10^5 cells/mouse), mouse colon cancer MC-38 cells (5×10^5 cells/mouse) or mouse pancreatic cancer Panc-2 cells (2×10^6 cells/mouse) in the right flanks of 8-week-old female C57BL/6 mice (n=6-7). The mice were returned to their respective cages after tumor implantation. From day 7 after tumor implantation, the tumor volumes were measured 2 times/week with a digital caliper. In the case of MC-38 and Panc-2 study, treatment started when the tumors reached an average of 70-80 mm^3. In the case of LL/2 study, tumor cell inoculation and treatment were initiated simultaneously. Mice were micro-chipped and registered following tumor implantation. […]

Row | Molecule | average tumor volume ([1]; Panc-2, n=6, start at ~70 mm^3, i.p. 2 times a week for 3 weeks (6th dose day 19), then 2 weeks off, antibody 2 mg/kg, Gemcitabine 25 mg/kg, nab-Paclitaxel 5 mg/kg, by day 35) [mm^3] | average tumor size / measurement ([1]; Panc-02, start at 80-100 mm^3, n=8/group, i.p. 2 times a week for 4 weeks, NMC-103 10 mg/kg, Gemcitabine 25 mg/kg, nab-Paclitaxel 5 mg/kg, by day 34, in NMC-103 groups attributed to scar and inflammation) [mm^3] | tumor size 6 days post single i.p. injection ([1]; Panc-2, mice pre-treated with Gemcitabine 25 mg/kg + nab-Paclitaxel 5 mg/kg for 19 days (~450 mm^3), single dose 10 mg/kg, from 438 mm^3) [mm^3] | tumor growth during 4 further weeks without drug treatment ([1]; Panc-02 study of FIG. 27, up to 62 days since start) | Kaplan Meier survival analysis ([1]; conditions of FIG. 27, compared to chemotherapy alone or control antibody) | tumor 10 days after re-challenge with Panc-2 cells ([1]; previously treated mice re-challenged at day 62, 2×10^6 cells s.c. left dorsal flank, no further drug) | complement-mediated cytotoxicity (PI uptake) [2] | tumor volume [3] [mm^3]
1 | NMC-103: mouse monoclonal antibody of the IgG1 isotype that binds to NMC-P1 (SEQ ID NO:1); VH SEQ ID NO:36, VL SEQ ID NO:37 (antibody, V domains shown, mAb NMC-103 Heavy Chain Variable Region; mAb NMC-103 Light Chain Variable Region) VH: EVQLQESGGGLVQPGGSLRLSCTTSGFTFTHYYMSWVRQPPGKALEWLGFIRNKAKGYTAEYSASVKGRFTISRDNSQSILYLQMNTLRPEDSATYYCARDIGDNWGQGTLVTVSS VL: DIVMTQAAFSNPVTLGTSASISCRSSKNLLHSNGITYLYWYLQRPGQSPQLLISRVSNLASGVPNRFSGSESGTDFTLRISRVEAEDVGVYFCAQLLELPYTFGGGTKLEIK | 1523 | 230 | 233 | no sign of tumor growth beyond the initial scar size | significant survival benefit | no tumor was observed | triggered complement-mediated cytotoxicity | –
2 | NMC-204: mouse monoclonal antibody of the IgG3 isotype that binds to NMC-P2 (SEQ ID NO:2); VH SEQ ID NO:38, VL SEQ ID NO:39 (antibody, V domains shown, mAb NMC-204 Heavy Chain Variable Region; mAb NMC-204 Light Chain Variable Region) VH: EVQLQESGSVLVRPGASVKLSCKASGDTLSGSWMHWAMQRPGQGLEWIGEIHLNRGTTNYNEKFKGKATVTVDTSSSTAYVDLSSLTSEDSAVYYCARSPGFAYWGQGTLVTVSA VL: GIVMTQAAPSVPVTPGESVSISCRSSKSLLHSNGNSYLYWFLQRPGQSPQLLIYRMSNLASGVPDRFSGSGSGTAFTLRITRVEAEDVGVYYCMQHLEYPFTFGSGTKLEIK | – | – | – | – | – | – | – | 1446
